{"source": "paper doi:10.1101/2023.08.08.552318", "molecular_target": "Hemiselmis andersenii phycobiliprotein α subunit Haα^OB1 (open-braced form) (Hemiselmis andersenii)", "assay": "crystal structure", "data": [{"substance": "Hemiselmis andersenii phycobiliprotein α subunit Haα^OB1 (open-braced form) (natural protein)", "values": [{"measurement": "stoichiometry N", "result": 2}]}]}
